Where two headings read alike, the source gives them in different places.
Legend:
Test in all cases: BLI
SARS-CoV RBD protein = SARS-CoV RBD protein (SARS-CoV, UniProt P59594)
RaTG13 RBD protein [1] = molecular target: RaTG13 RBD protein (RaTG13)
GX-pangolin RBD protein = GX-pangolin RBD protein (pangolin-CoV-GX)
GD-pangolin RBD protein = GD-pangolin RBD protein (pangolin-CoV-GD)
RaTG13 RBD protein [2] = molecular target: RaTG13 RBD protein (RaTG13); remark: listed apart in the source

B1: GW01 (antibody, V domains shown)
VH: EVQLVESGGGVVQPGGSLRLSCAASGFRFDDHAMHWVRQAPGKGLEWVSVISGDGGSTYYADSVKGRFSISRDDSKNSLYLQMNSLRTEDTALYYCAKDRSYGPPDVFNYEYGMDVWGQGTTVTVSS
VL: not shown
SARS-CoV RBD protein
  Kd: 1.49 nM
RaTG13 RBD protein [1]
  Kd: 14.4 nM
GX-pangolin RBD protein
  Kd: 7.42 nM
GD-pangolin RBD protein
  Kd: 4.05 nM
RaTG13 RBD protein [2]
  Kd: 14.2 nM
